Measured values published in paper PMC7736783 (Nucleic Acids Research, 2020).

B1: MTA1 BAH-ELM2-SANT-ZnF (residues 1–453) (domain or fragment, UniProt Q13330 1-453, looked up)
chain: MAANMYRVGDYVYFENSSSNPYLIRRIEELNKTANGNVEAKVVCFYRRRDISSTLIALADKHATLSVCYKAGPGADNGEEGEIEEEMENPEMVDLPEKLKHQLRHRELFLSRQLESLPATHIRGKCSVTLLNETESLKSYLEREDFFFYSLVYDPQQKTLLADKGEIRVGNRYQADITDLLKEGEEDGRDQSRLETQVWEAHNPLTDKQIDQFLVVARSVGTFARALDCSSSVRQPSLHMSAAAASRDITLFHAMDTLHKNIYDISKAISALVPQGGPVLCRDEMEEWSASEANLFEEALEKYGKDFTDIQQDFLPWKSLTSIIEYYYMWKTTDRYVQQKRLKAAEAESKLKQVYIPNYNKPNPNQISVNNVKAGVVNGTGAPGQSPGAGRACESCYTTQSYQWYSWGPPNMQCRLCASCWTYWKKYGGLKMPTRLDGERPGPNRSNMSPHGL
notes: MTA1, BAH, ELM2, SANT and GATA zinc finger domains, residues 1–453; also called extended MTA1 construct; source: HEK293F, co-transfected; co-purified (FLAG resin, TEV protease, Superose 6); not shown: His10-Flag3, N-terminal, cleaved
B2: MTA1-Δ12 (MTA1 162–354 with part of ELM2 helix 2 deleted) (domain or fragment, UniProt Q13330 162-354, looked up)
chain: ADKGEIRVGNRYQADITDLLKEGEEDGRDQSRLETQVWEAHNPLTDKQIDQFLVVARSVGTFARALDCSSAASRDITLFHAMDTLHKNIYDISKAISALVPQGGPVLCRDEMEEWSASEANLFEEALEKYGKDFTDIQQDFLPWKSLTSIIEYYYMWKTTDRYVQQKRLKAAEAESKLKQV
notes: Tag cleaved off by TEV protease before the gel filtration; Runs as a dimeric and a monomeric species on Superose 6; source: HEK293F, co-transfected, in lysate; co-purified (FLAG resin, TEV protease, Superose 6); not shown: His10-Flag3, N-terminal, kept
B3: MTA1 ELM2-SANT domain (residues 162–354) (domain or fragment, UniProt Q13330 162-354, looked up)
chain: ADKGEIRVGNRYQADITDLLKEGEEDGRDQSRLETQVWEAHNPLTDKQIDQFLVVARSVGTFARALDCSSSVRQPSLHMSAAAASRDITLFHAMDTLHKNIYDISKAISALVPQGGPVLCRDEMEEWSASEANLFEEALEKYGKDFTDIQQDFLPWKSLTSIIEYYYMWKTTDRYVQQKRLKAAEAESKLKQV
notes: The tag held the complex on the FLAG resin; it was cleaved off by TEV protease before gel filtration, SEC-MALS, the Strep-Tactin step and cryo-EM; also called MTA1 wildtype; source: HEK293F, co-transfected, in lysate; co-purified (FLAG resin, TEV protease, Superose 6); not shown: His10-Flag3, N-terminal, kept

What was measured:
[1] = target: the molecule itself; test: cryo-EM structure; co-expressed complexes purified by gel filtration, on graphene oxide grids; maps of 6.1, 4.5 and 19 Å with known structures docked as rigid bodies
HDAC1 (residues 1–482) [2] = target: T1, HDAC1 (residues 1–482) (UniProt Q13547 1-482); test: as above; conditions: both partners purified
T1 construct: Two copies stand in the HDAC1:MTA1 dimer complex; also called histone deacetylase 1; source: HEK293F, co-transfected, in lysate; co-purified (FLAG resin, TEV protease, Superose 6)

[3] = target: the molecule itself; test: SEC; FLAG-purified, TEV-eluted co-expressed complex run on a Superose 6 column; fractions on SDS-PAGE
MBD2 (residues 145–411) = target: T2, MBD2 (residues 145–411) (UniProt Q9UBB5 145-411); test: co-IP; HEK293F cells co-transfected with His10-Flag3-MTA1 construct, HDAC1 and MBD2; clarified lysate on FLAG resin 30 min, washes in 50 mM Tris-HCl pH 7.5, 100 mM potassium acetate, 5% glycerol, RNase A, elution with TEV protease; SDS-PAGE; DNA ratios 1:1:1 and 1:1:4; conditions: partners not purified
T2 construct: also called untagged MBD2; source: HEK293F, co-transfected, in lysate; co-purified (FLAG resin, TEV protease, Superose 6)

HDAC1 (residues 1–482) [4] = target: T1, HDAC1 (residues 1–482); test: as above; conditions: partners not purified
[5] = target: the molecule itself; test: SEC-MALS; peak fraction of the gel filtration-pure HDAC1:MTA1:MBD2 complex re-run on Superose 6 with refractive index and MALS detectors
[6] = target: T3, Strep-MBD2 (residues 114–411) (UniProt Q9UBB5 114-411); test: co-IP; HEK293F cells co-transfected with His10-Flag3-MTA1 construct, HDAC1 and MBD2; clarified lysate on FLAG resin 30 min, washes in 50 mM Tris-HCl pH 7.5, 100 mM potassium acetate, 5% glycerol, RNase A, elution with TEV protease; SDS-PAGE; DNA ratios 1:1:1 and 1:1:4; conditions: partners not purified
T3 construct: MBD2, residues 114–411; source: HEK293F, co-transfected, in lysate; co-purified (FLAG resin, TEV protease, Superose 6)
T3 sequence (Q9UBB5 114-411): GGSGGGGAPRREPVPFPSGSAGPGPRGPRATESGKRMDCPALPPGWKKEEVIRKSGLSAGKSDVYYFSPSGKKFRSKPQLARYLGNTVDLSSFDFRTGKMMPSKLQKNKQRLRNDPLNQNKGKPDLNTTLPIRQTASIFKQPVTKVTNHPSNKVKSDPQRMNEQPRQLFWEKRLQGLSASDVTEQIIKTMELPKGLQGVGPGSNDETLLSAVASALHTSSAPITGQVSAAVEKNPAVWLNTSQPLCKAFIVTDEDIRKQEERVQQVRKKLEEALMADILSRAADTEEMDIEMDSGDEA

T1 sequence (Q13547 whole entry, the tested form may be a part): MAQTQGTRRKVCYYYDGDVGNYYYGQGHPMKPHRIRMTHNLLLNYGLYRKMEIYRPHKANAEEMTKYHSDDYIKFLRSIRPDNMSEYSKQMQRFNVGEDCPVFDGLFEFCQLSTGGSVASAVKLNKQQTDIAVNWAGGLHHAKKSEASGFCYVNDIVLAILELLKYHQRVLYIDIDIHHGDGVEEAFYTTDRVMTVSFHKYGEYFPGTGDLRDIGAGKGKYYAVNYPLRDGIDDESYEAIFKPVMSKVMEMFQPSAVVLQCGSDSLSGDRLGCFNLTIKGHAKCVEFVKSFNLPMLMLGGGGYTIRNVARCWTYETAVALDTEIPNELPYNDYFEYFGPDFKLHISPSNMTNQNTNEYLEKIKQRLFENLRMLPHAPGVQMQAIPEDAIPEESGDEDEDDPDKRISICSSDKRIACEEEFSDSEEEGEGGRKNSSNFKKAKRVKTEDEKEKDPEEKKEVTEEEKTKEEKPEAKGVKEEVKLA
T2 sequence (Q9UBB5 145-411): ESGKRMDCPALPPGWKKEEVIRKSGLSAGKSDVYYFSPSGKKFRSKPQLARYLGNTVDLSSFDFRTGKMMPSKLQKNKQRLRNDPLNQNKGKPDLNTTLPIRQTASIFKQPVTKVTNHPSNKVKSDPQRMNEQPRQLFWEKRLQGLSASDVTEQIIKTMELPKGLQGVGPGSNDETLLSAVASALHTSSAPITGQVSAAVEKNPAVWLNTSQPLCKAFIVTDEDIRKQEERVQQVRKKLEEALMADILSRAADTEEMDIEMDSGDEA

| Binder | binding result [1] | binding result (HDAC1 (residues 1–482) [2]) | binding result [3] | binding result (MBD2 (residues 145–411)) | binding result (HDAC1 (residues 1–482) [4]) | stoichiometry N [5] | binding result [6] |
| --- | --- | --- | --- | --- | --- | --- | --- |
| B1 | binds | binds |  |  |  |  |  |
| B2 |  |  | binds | binds | binds |  |  |
| B3 |  |  |  | binds | binds | 2 | binds |
